PMC11387697, “Defining the functional properties of cyclopropane fatty acid synthase from Pseudomonas aeruginosa PAO1” (The Journal of Biological Chemistry, 2024)

Key:
[1] = molecular target: the molecule itself; test: native MS; native ion mobility MS; 5 uM enzyme buffer exchanged into 200 mM ammonium acetate, pH 7.5; nanoESI under gentle conditions (Waters Synapt G2-Si); collision-induced unfolding of the 20+ dimer ion at 4 to 110 V
purified protein = substrate: C[S+](CC[C@H](N)C(=O)O)C[C@H]1O[C@@H](n2cnc3c(N)ncnc32)[C@H](O)[C@@H]1O; test: purified protein; conditions: 60:40 PE 18:1/18:1:DPPG 100 nm unilamellar liposomes 1 mg/ml, HEPES pH 7.5, 37 °C

B1: Pseudomonas aeruginosa PAO1 cyclopropane fatty acid synthase (PA-CFAS) (enzyme, UniProt Q9HT28 1-394, looked up)
chain: MIAQLPSELLSLQLPLRIRIGDAQAFDLGPDPQVTMVIRDPSLLTEITHPSLDALGKAYVEKRLDIEGPISQVIGIGDALSEALGEPDGGAPPVRESHDKDTDAEAIHYHYDLSNDFYQLWLDPEMVYSCAYFETGKEDLATAQLAKLRHLCRKLRLQPGEKLLDVGCGWGGLARLAAREFGVEVTGITLSKEQLALGRERVKAEGLEDRVTLKLLDYRDLPRDGRFDKVVSVGMFEHVGHANLGLYFQQLYEAVRPGGLVMNHGITSRYTDGRPVGKGAGDFIDRYVFPHGELPHLSLAVARMSEAGLEVVDVESLRLHYARTLDFWSANLEARLKEAARLVPEETLRIWRLYLAGCAYGFKRGWINLHQILAIRPHEDGSHELPWSRRDLYA
notes: Cyclopropane fatty acid synthase, gene PA5546, P. aeruginosa PAO1, amplified from the PAO1 genome and cloned into pET16b; monomer with His6 tag MWcalc = MWobs = 46,486 Da; The native-MS dimer mass (92,972 Da) is twice the tagged monomer mass, so the tag was present in the assay; also called PA5546; Pseudomonas CFAS enzyme
[1]
  stoichiometry N: 2

B2: EC-CFAS (Escherichia coli K-12) (protein)
chain: SSSCIEEVSVPDDNWYRIANELLSRAGIAINGSAPADIRVKNPDFFKRVLQEGSLGLGESYMDGWWECDRLDMFFSKVLRAGLENQLPHHFKDTLRIAGARLFNLQSKKRAWIVGKEHYDLGNDLFSRMLDPFMQYSCAYWKDADNLESAQQAKLKMICEKLQLKPGMRVLDIGCGWGGLAHYMASNYDVSVVGVTISAEQQKMAQERCEGLDVTILLQDYRDLNDQFDRIVSVGMFEHVGPKNYDTYFAVVDRNLKPEGIFLLHTIGSKKTDLNVDPWINKYIFPNGCLPSVRQIAQSSEPHFVMEDWHNFGADYDTTLMAWYERFLAAWPEIADNYSERFKRMFTYYLNACAGAFRARDIQLWQVVFSRGVENGLRVAR
Purified protein
  Km: 68 µM
  kcat: 0.217 s⁻¹
